Consider 1 protein from publication PMC3354570 (Structure(London, England:1993), 2012).

This data set concerns the molecule itself. The data set can be described thus: AUC.

B1: human apolipoprotein A-IV core domain, residues 64-335 (domain or fragment, UniProt P06727 84-355, looked up)
chain: ATELHERLAKDSEKLKEEIGKELEELRARLLPHANEVSQKIGDNLRELQQRLEPYADQLRTQVSTQAEQLRRQLTPYAQRMERVLRENADSLQASLRPHADELKAKIDQNVEELKGRLTPYADEFKVKIDQTVEELRRSLAPYAQDTQEKLNHQLEGLTFQMKKNAEELKARISASAEELRQRLAPLAEDVRGNLRGNTEGLQKSLAELGGHLDQQVEEFRRRVEPYGENFNKALVQQMEQLRQKLGPHAGDVEGHLSFLEKDLRDKVNSFF
B1: the “stoichiometry N” value was found to be 2.
